Where a chain is given by its changes, count along the chain named.
Tests used:
Test in all cases: SPR; free energy change relative to wild-type D2
[1] = biological target: T1, FGFR1 D2 point mutant L53A (human, UniProt P11362 22-254)
T1 chain: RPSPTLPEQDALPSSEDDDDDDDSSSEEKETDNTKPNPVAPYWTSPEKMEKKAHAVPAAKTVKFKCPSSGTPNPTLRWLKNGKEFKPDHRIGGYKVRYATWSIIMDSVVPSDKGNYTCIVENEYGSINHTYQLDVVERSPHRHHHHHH
Description: (§1) Binding affinities of anti-FGFR1 antibodies to FGFR1 were measured by Surface Plasmon Resonance (SPR) using a GE Healthcare BIAcore 4000 instrument as follows. Goat anti-human Fc antibody (Jackson ImmunoResearch Laboratories #109-005-098) was first immobilized on BIAcore carboxymethylated dextran CM5 chip using direct coupling to free amino groups following the procedure described by the manufacturer. Antibodies were then captured on the CM5 biosensor chip to achieve approximately 200 response units (RU). Binding measurements were performed using the running HBS-EP+ buffer. A 2-fold dilution series of His-tagged FGFR1 proteins were injected at a flow rate of 30 μl/min at 25° C. Association rates (kₒₙ, per mol/s) and dissociation rates (koff, per s) were calculated using a simple 1:1 Langmuir binding model (Biacore 4000 Evaluation Software). The equilibrium dissociation constant (KD, mol) was calculated as the ratio of koff/kₒₙ.
(§2) To obtain a finer, residue-level mapping of the epitope and to complement the HD exchange data, molecular modelling and manual inspection of the crystal structure of FGFR1 [(Beenken et al. 2012); PDB record 3OJV] was used to select solvent exposed residues within and around the epitope identified by HD exchange. The selected residues were mutated either to alanine (large to small) or to glycine if the selected residue was alanine. In total 35 point mutants were designed, expressed and purified in HEK cells, and tested for binding to mAb #A08 using surface plasmon resonance as described in Example 1.8. The affinity of the antibody for wild-type and each mutant was determined and used to calculate the contribution of each epitope residue to the binding energy.
(§3) Variant were compared to wild-type D2. The change in the Gibbs free energy of binding of mutant relative to the wild-type D2 construct (ΔΔGₘᵤₜ) was derived from the ratio of the wild-type and mutant KD.

[2] = biological target: T2, FGFR1 D2 point mutant S107A (human, UniProt P11362 22-254)
T2 chain: T1 chain with A53L, S107A
Description: as §1, §2, §3

[3] = biological target: T3, FGFR1 D2 point mutant K52A (human, UniProt P11362 22-254)
T3 chain: T1 chain with K52A, A53L
Description: as §1, §2, §3

[4] = biological target: T4, FGFR1 D2 point mutant Y98A (human, UniProt P11362 22-254)
T4 chain: T1 chain with A53L, Y98A
Description: as §1, §2, §3

[5] = biological target: T5, FGFR1 D2 point mutant Y94A (human, UniProt P11362 22-254)
T5 construct: Uncharacteristic melting curve
T5 chain: T1 chain with A53L, Y94A
Description: as §1, §2, §3

[6] = biological target: T6, FGFR1 D2 point mutant H54A (human, UniProt P11362 22-254)
T6 chain: T1 chain with A53L, H54A
Description: as §1, §2, §3

[7] = biological target: T7, FGFR1 D2 point mutant A58G (human, UniProt P11362 22-254)
T7 chain: T1 chain with A53L, A58G
Description: as §1, §2, §3

[8] = biological target: T8, FGFR1 D2 point mutant V96A (human, UniProt P11362 22-254)
T8 chain: T1 chain with A53L, V96A
Description: as §1, §2, §3

[9] = biological target: T9, FGFR1 D2 point mutant K51A (human, UniProt P11362 22-254)
T9 chain: T1 chain with K51A, A53L
Description: as §1, §2, §3

[10] = biological target: T10, FGFR1 D2 point mutant K48A (human, UniProt P11362 22-254)
T10 chain: T1 chain with K48A, A53L
Description: as §1, §2, §3

B1: mAb #A08 (antibody, V domains shown)
VH: EVQLQESGPGLVKPSGTLSLTCAVSGGSISSNNWWSWVRQPPGKGLEWIGEIYHSGSTSYNPSLKSRVTISVDKSKNQFSLKLNSVTAADTAVYYCARGTDWFDPWGQGTLVTVSS
VL: QAVLTQPPSVSVAPGQTARITCGGNNIGSESVHWYQQKPGQAPVLVVYDDSDRPSGIPERFSGSNSGNTATLTISRVEAGDEADYYCQVWDSTSDHRVFGGGTKLTVL
notes: Only variable domains are tied to the name mAb #A08 (hit); also called #A08 hit; mAb #08
For B1, the ΔΔGmut [1] was 0.25 kcal/mol, the ΔΔGmut [2] was 0.13 kcal/mol and the ΔΔGmut [3] was 0.11 kcal/mol. For the same binder, the ΔΔGmut [4] was -0.04 kcal/mol, the ΔΔGmut [5] was 0.96 kcal/mol and the ΔΔGmut [6] was 0.37 kcal/mol. The ΔΔGmut [7] was 1.44 kcal/mol, the ΔΔGmut [8] was -0.02 kcal/mol and the ΔΔGmut [9] was 0.27 kcal/mol. It also gave a ΔΔGmut [10] of -0.46 kcal/mol.
